Values joined by “and” are separate entries in the source; they are usually repeats but may differ in a detail not shown here. Equal values may be shown once. Read-outs that look alike come from different tables or passages of the source.
Experiments:
[1] = target: Neisseria meningitides DMP19 (DNA mimic protein 19 kDa), tag free (Neisseria meningitides); experiment: SEC; Superose 12, 20 mM Tris pH 7.4, 100 mM NaCl; 750 μM HU-His6 or 1500 μM tag-free DMP19 alone, or both together; MW from Kav against four standards
[2] = target: HU (Haemophilus influenzae) (UniProt P43722); experiment: ITC; conditions: cited from earlier work
[3] = target: Neisseria meningitides DMP19 (DNA mimic protein 19 kDa), tag free (Neisseria meningitides); experiment: ITC; ITC200, 300 μM HU-His6 dimer in the syringe into 30 μM DMP19 monomer in the cell, 20 mM Tris pH 7.4, 50 mM NaCl, 25°C, 20 injections of 2 μl
[4] = target: Neisseria meningitides DMP19 (DNA mimic protein 19 kDa), tag free (Neisseria meningitides); experiment: as above; remark: listed apart in the source
[5] = target: C-terminal His6-tagged Neisseria HU (not stated (Neisseria)); experiment: SEC; Superose 12, 20 mM Tris pH 7.4, 100 mM NaCl; 750 μM HU-His6 or 1500 μM tag-free DMP19 alone, or both together; MW from Kav against four standards

Neisseria meningitides DMP19 (DNA mimic protein 19 kDa), tag free (natural protein)
stoichiometry N [1]: 2

HI1450 (from UniProt P44199)
Kd [2]: 3000 nM

C-terminal His6-tagged Neisseria HU (natural protein)
Kd [3]: 380 nM and 490 nM and 640 nM
Kd [4]: 500 nM
stoichiometry N [5]: 2

— paper PMC5722371
